Assay results from patent US20220372132A1 (SG MEDICAL, published 2022).

Columns and labels:
[1] = molecular target: T1, α5β1 integrin (R&D Systems, USA) (human, UniProt P08648 42-995; P05556 21-728); test: indirect ELISA, integrin coated at 1 µg/ml, HRP anti-human Fc detection
T1 construct: Bought heterodimer; also called recombinant human α5β1 integrin
Procedure: (§1) The affinities of the monoclonal antibody GP5 for various integrins were measured by indirect ELISA to determine the specificity of the monoclonal antibody GP5 for beta 1 integrin. Each of recombinant human αVβ1 integrin (R&D Systems, USA), αVβ3 integrin (R&D Systems, USA), αVβ5 integrin (R&D Systems, USA), αVβ6 integrin (R&D Systems, USA), αVβ8 integrin (R&D Systems, USA), α5β1 integrin (R&D Systems, USA), and α2bβ3 integrin (R&D Systems, USA) was diluted to 1 μg/ml in 50 μl of PBS, plated in a 96-well immune plate (Corning, USA), and stored at 4° C. overnight for its adsorption. After incubation with a buffer containing 3% bovine serum albumin (Millipore, USA) at 37° C. for 1 h, the wells were treated with the monoclonal antibody GP5 sequentially diluted to concentrations of 0.01, 0.03, 0.1, 0.3, 1, 3, 100, 300, and 1000 nM (50 μl/well). The well plate was incubated at 37° C. for 2 h to allow the antibody to bind to the antigen and washed 3 times with a buffer containing 0.5% Tween 20 (Amresco, USA). The wells were treated with HRP-labeled anti-human Fc IgG secondary antibody diluted 1:3000 with PBS (50 μl/well). The well plate was incubated at 37° C. for 1 h and washed 3 times with a buffer containing 0.5% Tween 20 (Amresco, USA). […] Absorbance was measured at 450 nm using a spectrophotometer (Biotek, USA).

[2] = molecular target: T2, recombinant human αVβ1 integrin (R&D Systems, USA) (human, UniProt P06756 31-992; P05556 21-728); test: as above
T2 construct: Bought heterodimer
T2 sequence (P06756 31-992 limits assumed, chain 1 of 2): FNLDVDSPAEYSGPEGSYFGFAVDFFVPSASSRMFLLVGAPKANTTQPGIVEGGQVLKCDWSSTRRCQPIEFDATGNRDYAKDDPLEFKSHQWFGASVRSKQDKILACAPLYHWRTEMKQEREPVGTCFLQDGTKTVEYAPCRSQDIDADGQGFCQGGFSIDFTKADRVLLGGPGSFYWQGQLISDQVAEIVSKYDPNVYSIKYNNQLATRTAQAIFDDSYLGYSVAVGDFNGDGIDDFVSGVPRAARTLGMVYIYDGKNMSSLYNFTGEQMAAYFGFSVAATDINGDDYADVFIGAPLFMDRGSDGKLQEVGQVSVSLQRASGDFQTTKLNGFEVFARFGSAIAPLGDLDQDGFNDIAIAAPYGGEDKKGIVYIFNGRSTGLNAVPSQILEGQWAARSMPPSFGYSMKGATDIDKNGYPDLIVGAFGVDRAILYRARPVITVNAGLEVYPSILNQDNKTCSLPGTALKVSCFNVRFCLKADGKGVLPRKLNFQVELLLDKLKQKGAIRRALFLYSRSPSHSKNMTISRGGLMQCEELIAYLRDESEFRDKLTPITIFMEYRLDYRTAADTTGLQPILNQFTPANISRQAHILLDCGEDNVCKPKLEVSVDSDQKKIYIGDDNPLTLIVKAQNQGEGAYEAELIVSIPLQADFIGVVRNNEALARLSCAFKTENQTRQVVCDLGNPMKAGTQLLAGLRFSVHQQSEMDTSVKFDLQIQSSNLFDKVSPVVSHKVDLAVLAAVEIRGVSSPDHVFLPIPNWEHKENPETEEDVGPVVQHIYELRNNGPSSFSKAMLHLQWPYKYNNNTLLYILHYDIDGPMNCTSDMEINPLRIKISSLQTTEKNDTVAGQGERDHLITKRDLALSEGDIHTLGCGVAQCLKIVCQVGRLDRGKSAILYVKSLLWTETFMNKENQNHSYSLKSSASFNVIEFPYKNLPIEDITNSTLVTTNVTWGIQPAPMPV
T2 sequence (P05556 21-728 limits assumed, chain 2 of 2): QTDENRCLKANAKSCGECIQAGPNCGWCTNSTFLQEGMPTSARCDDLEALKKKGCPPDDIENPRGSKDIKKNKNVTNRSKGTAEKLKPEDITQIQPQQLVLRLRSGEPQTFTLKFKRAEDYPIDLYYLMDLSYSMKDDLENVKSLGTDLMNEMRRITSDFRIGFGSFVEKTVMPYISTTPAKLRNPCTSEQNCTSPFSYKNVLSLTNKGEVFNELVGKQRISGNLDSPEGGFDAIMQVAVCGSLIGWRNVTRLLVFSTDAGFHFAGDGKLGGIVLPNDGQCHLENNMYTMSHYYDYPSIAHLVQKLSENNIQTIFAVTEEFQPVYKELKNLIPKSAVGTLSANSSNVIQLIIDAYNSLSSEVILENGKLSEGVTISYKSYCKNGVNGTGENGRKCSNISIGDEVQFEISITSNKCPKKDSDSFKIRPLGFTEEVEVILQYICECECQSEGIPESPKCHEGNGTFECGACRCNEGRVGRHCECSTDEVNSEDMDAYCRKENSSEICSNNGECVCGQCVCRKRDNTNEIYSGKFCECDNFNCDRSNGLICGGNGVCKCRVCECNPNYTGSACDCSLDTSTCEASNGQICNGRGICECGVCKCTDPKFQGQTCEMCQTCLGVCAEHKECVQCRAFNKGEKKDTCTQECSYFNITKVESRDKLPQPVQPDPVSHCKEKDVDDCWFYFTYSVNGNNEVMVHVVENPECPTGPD
Procedure: as §1

T1 sequence (P08648 42-995 limits assumed, chain 1 of 2): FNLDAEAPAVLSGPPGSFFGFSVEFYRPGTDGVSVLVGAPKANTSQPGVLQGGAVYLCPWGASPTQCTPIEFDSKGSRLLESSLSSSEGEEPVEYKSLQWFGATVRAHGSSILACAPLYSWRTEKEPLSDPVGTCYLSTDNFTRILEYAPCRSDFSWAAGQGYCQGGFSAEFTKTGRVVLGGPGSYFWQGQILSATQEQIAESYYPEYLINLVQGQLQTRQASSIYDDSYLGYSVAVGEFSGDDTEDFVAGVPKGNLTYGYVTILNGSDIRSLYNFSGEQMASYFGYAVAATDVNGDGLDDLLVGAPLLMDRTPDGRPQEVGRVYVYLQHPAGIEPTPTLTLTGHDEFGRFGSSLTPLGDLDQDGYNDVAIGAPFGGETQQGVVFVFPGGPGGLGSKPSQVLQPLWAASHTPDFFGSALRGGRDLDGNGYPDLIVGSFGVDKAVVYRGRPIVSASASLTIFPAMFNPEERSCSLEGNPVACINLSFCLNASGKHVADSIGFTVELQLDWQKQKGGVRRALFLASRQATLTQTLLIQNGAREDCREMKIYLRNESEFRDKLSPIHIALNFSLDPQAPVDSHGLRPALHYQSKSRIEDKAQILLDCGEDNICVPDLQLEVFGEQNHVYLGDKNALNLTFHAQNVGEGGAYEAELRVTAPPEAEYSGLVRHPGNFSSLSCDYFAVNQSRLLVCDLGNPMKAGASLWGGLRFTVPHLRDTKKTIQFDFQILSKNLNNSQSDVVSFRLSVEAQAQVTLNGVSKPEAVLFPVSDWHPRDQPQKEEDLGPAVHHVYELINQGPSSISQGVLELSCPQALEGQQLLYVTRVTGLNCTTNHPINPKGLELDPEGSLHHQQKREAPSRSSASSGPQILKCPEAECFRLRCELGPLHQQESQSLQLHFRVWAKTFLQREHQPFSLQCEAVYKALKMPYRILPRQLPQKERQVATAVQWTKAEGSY
T1 sequence (P05556 21-728 limits assumed, chain 2 of 2): as the sequence (P05556 21-728 limits assumed, chain 2 of 2) above

- binding result [1]: binds
- binding result [2]: binds
B1: monoclonal antibody GP5 (antibody, human IgG1, V domains shown)
VH: QVQLQQSGSELMKPGASVKVSCKASGYTFTNYWIEWIVQRPGHGLEWIGEILPGSVNTNYNAKFKDRATFTADTSTDTASMELSSLTSEDSAVYYCALATPYYALDSWGQGTSVTVSS
VL: DIVMTQAAPSLSVTPGESVSISCRSTESLLHSNGNTYLYWYLQKPGQSPQLLIYRMSNRASGVPDRFSGSGSGTAFTLKIRRVEAEDVGVYYCMQHLEYPFTFGAGTKLELK
notes: Full IgG made in HEK293F cells; The humanized VH is joined to a human IgG1 heavy chain constant region (CH1, CH2, CH3) and the VL to a human Ckappa; also called humanized antibody GP5; modified monoclonal antibody (GP5)
